The values that follow come from paper PMC7241686.

The target of this test is HA trimer from A/New Caledonia/20/1999 (H1N1), soluble trimerized HA ectodomain (Influenza A virus A/New Caledonia/20/1999 (H1N1)). Nature of the test: SEC.

Broadly, the stoichiometry N is the number of molecules, sites or subunits per partner or assembly. As to “HA trimer from A/New Caledonia/20/1999 (H1N1), soluble trimerized HA ectodomain (domain or fragment)”, the stoichiometry N came to 3.
